Experimental data from the nanobody polyreactivity screen of Harvey et al. (2022).

Test: yeast display, Sf9 membrane polyspecificity reagent, FACS + sequencing; frameworks hold sequencing errors
Outline: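 Genes from sorted yeast were amplified by colony PCR, read by MiSeq 2 × 250 sequencing and filtered on CDR length. These cells carried a synthetic nanobody library in Saccharomyces cerevisiae BJ5465 and were sorted by FACS into low and high (top ~1%) gates on anti-HA and streptavidin fluorescence. Polyreactivity is labelled according to the gate of origin.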

Row | Sequence | polyreactivity (PSR sort gate)
1 | QVQLVESGGGLVQARGSLRLSSAASGSTFYDYAMGWYRHAPGKERELVAAISGNGDSTYYADSVKGRFTISRDNAKNTVYLQMNSLNPEDTAVYYCAAYLGWGYDYWGQGTQVTVSS | low polyreactivity
2 | QVQLVESGGGLVQAGGSLRLSCAASGSIFGLNAMGWYRPAHGKETELVAAISGGSTNYADSVKGRFTISRDNAKNTVYLQMNSLKTDDTAVYYCAARARRRYYYWGQGTQVTVSS | high polyreactivity
3 | QVQLVESGGGLVQAGGSLRLSCAASGSIFKKNAMGWYRQEPGKERELVAAITRRGASTYYADSVKGRFTISRDNAKNNVYLQMNSLKREDTAVYYCAAPGKIGASFDNYYYWGQGTQVTVSS | high polyreactivity
4 | QEQLQESGGGLVQAGGSLRLSCAASGIIFDWFFMGWYRQAPGREREFVAAITYGATTNYADSVKGRFTISRDNGKNTVYLQMNSLKPEDSAVYYCAAQHRGVQVTFGEYDYWGQGTQVTVSS | low polyreactivity
5 | QVQLVESGGGLVQAGGSLRLSCPASGRTFSSYAMGWYRPAPGKERELVAAISRRGGSTYYADSVKGRFTISRDNAKNTVYLKMNSLKPEDTAVYYCAADVYKQYGYYYWGQGSQVTVSS | high polyreactivity
6 | QVQLVESGGGLVQAGGSLRLSCAASGSTFGPYAMGWYRQAPGKERELVATITRNGGSTYYADSVKGRFTISRDNAKNTVYLQMNILKPEDTAVYYCNAEGRWSSFTQRMDYWGQGTQVTVSS | low polyreactivity
7 | QVQLVETGGGLVQAGGSLRLSCAASGNTFHPYAMGWYRQSPGKERELVAAITKSVGSTYYADSVKGRFTLSRDNAKNTVYLQMNSLKPEDTAVFYCARDSLQVFYPYASDDSWGQGTQVTVSS | low polyreactivity
8 | QVQLVESGGGLVQAGGSLRLSCAASGSIFADNAMGWYRQAPGKERELVAAITRGGSTYYADSVKGRFTISRDNAKNTVYLQMNSLKPEDTAVYYCAAGTTTYSVNEVPVREGYDYWGQGTQVTVSS | low polyreactivity
9 | QVQLVESGGGLVQAGGSLRLSCAASGSIFSSNAMGWYRPAPGKERELVAAITSGGSTTYADSVKGRFTISRDNAKNTVYLQMNSLKPEDTAVYYCNARNYYYPSDRDYWGQGTQVTVSS | low polyreactivity
10 | QVQLVESGGGLVQAGGSLRLICAASGRTFRGYAMGWYRQAPGNERELVAAITKSGGSTYYADSVKGRFTISRDNEKNTVYFQMNSLKPEDTAVYYCAKLRSSRDYDYWGQGTQVTVSS | high polyreactivity
11 | QVQLVESGGGLVQSGGSLRLSCAAYGNFFANNSMGWYRQAPGKERELVAAISQSGGNTYYADSVKGRFTISRDNAKNTVYLQMNSLKPEDTADYYCNAKTYGYNYDSWGQGTQVTVSS | low polyreactivity
12 | QVQLVESGGGLVQAGGSLRLSCAASGVIFFSYAMGWYRQAPGKERELVASISRSGGTTYYADSVKGRFTISRDNGKNTVYLQMNSLKPEDTAVYYCAARTYSYYSRDYCGQGTQVTVSS | high polyreactivity
13 | QVQLVESGGGLVQAGGSLRLSCAASVFTIPPYAMGWYRRAPGKERELVARITWSGDRTYYADSVKGRFTISRDNAKNTFYLQINSLKPEDTAVYYCADDSAQYYEMDYWGQGTQVTVSS | high polyreactivity
14 | QVQLVESGGGLVQAGGSLRLSCAASGRIFFGYAMGWYRQAPGKERELVASISRGGSTNYADSVKGRFTISRDNAKNTVYLQMNSLKPEDTAVYYCAASRYLQRYGMYYWGQGTQVTVSS | high polyreactivity
15 | QGQLVESGGGFVQAGGSLRLSCAASGRTIEGNAMGWYRQPPWKERELVAGIRQSGDSTYYADSVKGRFTISRDNAKNTVYLQMNSLKAEETAVFYSNSRAFPFGTGVQGFGFGYWGQGTQVTVSS | low polyreactivity
16 | QVQLVESGGGLVQAGGSLRLSCAASGSTFSRYTMGWYRQAPGKERELVAAIRRSGASTYYADSVKGRFTISRDNAKITVYLQMNSLKPEDTAVYYCAVGRYRYGYWGHGTQVTVSS | high polyreactivity
17 | QVQLVESGGGLVQAGGSLRLTCAASGITFDLNAKGWYRQAPGKERELVAAIFRGGSTYYADSVKGRFTISRDNAKNTVYLQMNSLKPEDTAVYYCAAAYYRVGRAYPHEAYDYWGQGTQVTVSS | low polyreactivity
18 | QVQLVESGGGLVQAGGSLRLSCAASGSIFGWYAMRSYRQAPGKATELVASISGSGGSTYYADSVKGRFTISRDNAKNTVYLQMNSLKPEDTAVYYCAADYALSSLPFDYWGQGTQVTVSS | high polyreactivity
19 | QVQLVESGGGLVQAGGSLRLSSAPSGRIFDHYAMGWYRQAHGKERELGAAITRSGGITYYADSVKGRFTISRDNAKNTVYLQMNSLKPEDTAVYYCAALSYRYTDKFDYWGQGTQVTVSS | low polyreactivity
20 | QVQLVESGGGLVQAGGSLRLSCAASGIIFLGNAMGWYRQAPGKERELVAAITASGTSTYYADSVKGRFTISRDNAKNTVYLQMNSLKPEDTAVYYCAAQSTWYDYYYWGQGTQVTVSS | low polyreactivity
21 | QVQLVESGVGLVQAGGSHRLSCAASGSIFGFYVMGWYRQAPGKERELVAAISRGGTRTYYADSVKGRFTISRDNAKNTVYLQMNSLKPEDTAVYYCAKYDGGSGTGPRSDYWGQGTQVTVSS | high polyreactivity
22 | QVQLVESGGCLVQAGGSLRLSCAASGSIFSANAMGWYRQAPGKETELVAAITRGGSTNYADSVKGRFTIARDNAKNTVYLQMNSLKPEDTAVYYCNDEPDPYSSGRVRRDYDYWGQGTQVTVSS | low polyreactivity

Row | Sequence | polyreactivity (PSR sort gate)
23 | HVQLVESGGGIVQAGGILRLSCAASGRIFSVYTMGWYRKAPGQERELVAAISSGASTNYADSVKGRFTISRDNAKNTVYLQMNSLKPEDTAVYYCAKEYGIYTDTPYYYWGQGTQVTVSS | low polyreactivity
24 | QVQLVESGGGVVQAGGSLRLSCAASGRTFRSYAMGWYRQAPGKERELVAAISWSGGSTYYADSVKGRFTISRDNAKNTVYLQMNSLKPEDTAVYYCAATVGQRKYQLGYWGQGTQVTVSS | high polyreactivity
25 | QVQLVESGGGLVQAGGSLRLSCAASGFTLGSNVMGWYRQAPGKERELVAGISQSGGRTFYADSVKGRFTISRDNSKNTVYLQMNSLKPEDTAVYYCAARRYAVEGSKNYYWGQGTQVTVTS | low polyreactivity
26 | QVQLVESGGGLVQAGGSLRLSCAASGRTFPGNAMGWYRQAPGKERELVAAISWSGTRTYYADSVKGRFTISRDNAKNTVYLQMNSLKPEDTAVYYCNRRYWSFFPYDYWGQGTQVTVSS | high polyreactivity
27 | QVQLVESGGGLVQAGGSLRLSCAASGLTVDTYDMGWYIQAPGKERELVAAIDWSGVSTYYADSVKGRFTISRDNAKNTVYLQKNSLKTEDTAVYYCAADLLQYDIASWDYTYDYWGQGTQVTVSS | low polyreactivity
28 | QVQLVDSGGGLVQAGGSLRLSCAASGSIFVPYAMGWYRQAPRKERELVAAISWSGGSTNYADSVKGRFTISRDNAKNTVYLQMNSLKPEDTAVYYCNARWSSWYIHSHYYYWGQGTQVTVSS | high polyreactivity
29 | QVQLVESGGGLVQAGGSLRLICAASGRIFYGYAMGWYRQAPGKEREFVAAITVSAGSTYYADSVKGRFTISRDYAKNTVYLQMNSLKPEDTAVYYCAAKRYVYPSYRFDYWGQGTQVTVSS | low polyreactivity
30 | QVQLVESGGGLVQAGGSLRVSCAASGFTFGSYAMGWYRQSPGKERELVAVITRSGRTNYADSVKGRFTISRDNAKNTVYLQMNSLKPEDTAVYYCNADDVDDEVSPDLTEMDYWGQGTQVTVSS | low polyreactivity
31 | QVQLVESGGGLVQAGGSLRLSCAASGFIFHDNAMGWYRQAPGKERELVAAIRSTGSTNYADSVKGRFTISRDNAKNTVYLQMNSLKPEDTAVYYCNAGKYQSDTPSLDPTEYPAFYYWGQGTQVTVSS | low polyreactivity
32 | QVKLVESGGGLVQAGGSLRLTCAAYGFTFAGYTLGCYRQAPGKERELVAAITSSGGSTYYADYVKGRFTISRDNAKNTVYLQMNSLKPEDTAVYYCAARSHSTYYYWGQGTQVTVSS | high polyreactivity
33 | QVQLVESGGGLVQAGGSLRLSCAASGLTFEYNAMGWYRQAPGKERELVATISNGGITSYADSVKGRFTISRDNAKNTVYLQMNSLKPEDTAVYYCAASYADSPTTDQLWLEYDSWGQGTQVTVSS | low polyreactivity
34 | QDQLVESGGGLVQAGGSLRLSCAASVRIFWLYAMGWYRQAPGKERELVAVISWSGGTTYYADSVKGRFTISRDNAKNTVYLQMNSLKPEDTAVYSCAAQVGFYTNYREFDYWGQGTQVTVSS | low polyreactivity
35 | QVQLVESGGGLVQAGGSLLLSCAASGSTFISYAMGWYRQAPGKERELVAAITWRGGSTYNADSVKGRFTISRDNAKNTVYLQMNSMKPEDTAVYYCAAEFYYYYGRYDYWGQGTQVTVSS | high polyreactivity
36 | QVQLVESGGGLVQAGGSLRLSCASSGSTFSANTKGWYRQAPGKERELVAAINSSGGSSTYYADSVKGRFTISRDNAKNTVYLQMKSLKPEDTAVYYCAAENSVPRGVLGGEFDYWGQGTQVTVSS | low polyreactivity
37 | QVQLVESGAGLVQAGGRLRLSCAASGSTFGYYAMGLYTQAPGTERELVAVITTRVGSTYYADSVKGRFTISRDNAKNTVYLQMNSLKPEDTAVYYCNASGRTRSYSGSFSKHYYWGQGTKVTVSS | high polyreactivity
38 | QVQLVESGGGLVQAGGSLRLSCAASGSIFSIYAMGWYRQAPGKERELVASITRSSGRTYYADSVKGRFTISRDNAKNTVYLQMNSLKPEDTAVYYCAKDYIPLALDADDYWGQGTQVTVSS | low polyreactivity
39 | QVQLVESGGGLVQAGGSLRLSCAASGSTFTDYAMGWYRQAPGKERELVAAIDSGGITNYADSVKGRFTISRDNAKNTVYLQMNSLKPEDTAVYYCNADSSKFYSHGEYEYWGQGTQVTVSS | low polyreactivity
40 | QVQLVESGGGLVQAGGSLRLSCAASGIIFGTNAMGWSRQAPGKERELVAAITWSGGTYYADSVKGRFTISRDNAKNTVYLQMNSLKPEDTAVYYCAADGSGYYDWYYYWGQGTQVTVSS | low polyreactivity
41 | QVQLVESGGGLVQPGGSLRLSCAASGRTFGYNAMGWYRQAPGKERELVAAIRYSGGSTYYADSVKGRFTISRDNAKNTVYLQMNSLKPEDTAVYYCAAYSLFSSYGNDYWGQGTQVTVSS | high polyreactivity
42 | QVQLVESGGGLVQAGGSLRLSCAASGCIFVSHAMGWYRQAPGKERELVAAITSGDNTKYADSVKGRFTISRDNAKNTVYLQMNSLKPEDTAVYYCAVTYRYQGAGYYWGQGTQVTVSS | low polyreactivity
43 | QVQLVESGGGLVQAGGSLRLSCAASGRTFAIYAMGWYRQAPGKERELVAVINYSGDRTYYADSVKGRFTISRDNAKNTVYLQMNSLKPEDTAVYYCAAVLEYTSDYLSGENDYWGQGTQVTVSS | low polyreactivity
